Residue numbers refer to the chain shown, from its start. Names and notes keep the numbering of the source. Values joined by “and” are separate entries in the source; they are usually repeats but may differ in a detail not shown here. Equal values may be shown once. “Also recorded” adds a separate entry of the source. Read-outs that look alike come from different tables or passages of the source. Residues, ends and D or L forms follow the SMILES beside them. No end group written: not given here. *: point of attachment. 5FAM = O=C1OC2(c3ccc(O)cc3Oc3cc(O)ccc32)c2ccc(C(=O)*)cc21

The values that follow come from PMC6393309 (Nucleic Acids Research, 2019).

The chains are these.
T1: λ Exo – Redβ complex (Escherichia phage lambda, UniProt P03698)
T1 sequence (P03698 1-261): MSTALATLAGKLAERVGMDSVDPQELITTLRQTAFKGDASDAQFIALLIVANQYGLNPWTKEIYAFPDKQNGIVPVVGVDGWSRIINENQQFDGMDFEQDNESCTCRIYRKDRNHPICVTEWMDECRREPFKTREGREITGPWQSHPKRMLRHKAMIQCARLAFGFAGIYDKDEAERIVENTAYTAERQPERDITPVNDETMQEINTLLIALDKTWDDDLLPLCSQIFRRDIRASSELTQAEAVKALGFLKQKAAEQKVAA

T2: Redβ (Escherichia phage lambda, UniProt P03698)
T2 sequence (P03698 1-261): T1 sequence (P03698 1-261)

T3: Redβ, full-length, untagged (wild type) (bacteriophage λ, UniProt P03698 1-261)
T3 sequence: T1 sequence (P03698 1-261)

T4: complex of λ Exo and full-length untagged Redβ (bacteriophage λ, UniProt P03697;P03698)
T4 sequence 1: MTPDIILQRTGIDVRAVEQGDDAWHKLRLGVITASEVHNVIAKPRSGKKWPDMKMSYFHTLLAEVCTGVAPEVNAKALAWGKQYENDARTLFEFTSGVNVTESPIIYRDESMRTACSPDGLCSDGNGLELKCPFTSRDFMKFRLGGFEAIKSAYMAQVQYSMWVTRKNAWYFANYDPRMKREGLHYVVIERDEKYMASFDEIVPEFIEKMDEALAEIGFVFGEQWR
T4 sequence 2: T1 sequence (P03698 1-261)

T5: 6His-tagged Escherichia coli exonuclease I (Escherichia coli, UniProt P04995 1-475)
T5 sequence: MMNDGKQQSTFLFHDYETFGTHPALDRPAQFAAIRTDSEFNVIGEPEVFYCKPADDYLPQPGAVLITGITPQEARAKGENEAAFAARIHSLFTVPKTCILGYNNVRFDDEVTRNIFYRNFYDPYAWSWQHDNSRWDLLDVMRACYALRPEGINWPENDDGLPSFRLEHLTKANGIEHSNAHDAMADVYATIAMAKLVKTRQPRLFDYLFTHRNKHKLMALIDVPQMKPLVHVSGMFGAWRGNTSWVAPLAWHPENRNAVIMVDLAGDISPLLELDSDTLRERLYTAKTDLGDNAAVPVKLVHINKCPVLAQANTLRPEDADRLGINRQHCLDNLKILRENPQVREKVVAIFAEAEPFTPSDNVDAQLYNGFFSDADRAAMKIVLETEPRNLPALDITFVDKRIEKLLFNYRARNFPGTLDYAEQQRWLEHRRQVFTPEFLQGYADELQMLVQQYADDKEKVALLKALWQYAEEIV

B1: Redβ C-terminal domain (residues 183-261) (domain or fragment)
chain: AYTAERQPERDITPVNDETMQEINTLLIALDKTWDDDLLPLCSQIFRRDIRASSELTQAEAVKALGFLKQKAAEQKVAA
B2: Redβ^1–250: variant of Redβ lacking the C-terminal 11 residues (protein)
chain: MSTALATLAGKLAERVGMDSVDPQELITTLRQTAFKGDASDAQFIALLIVANQYGLNPWTKEIYAFPDKQNGIVPVVGVDGWSRIINENQQFDGMDFEQDNESCTCRIYRKDRNHPICVTEWMDECRREPFKTREGREITGPWQSHPKRMLRHKAMIQCARLAFGFAGIYDKDEAERIVENTAYTAERQPERDITPVNDETMQEINTLLIALDKTWDDDLLPLCSQIFRRDIRASSELTQAEAVKALGFL
B3: λ Exonuclease, full-length, untagged (enzyme)
chain: T4 sequence 1
B4: Q240A (protein, UniProt P03698 1-261, looked up, variant Q240A)
Recombination protein bet: T1 sequence (P03698 1-261) with Q240A
B5: YbcN: Orf homolog from E. coli cryptic prophage DLP12 (protein, UniProt Q47269 1-151, looked up)
Uncharacterized protein YbcN: MNLSQDGIKLHRGNFTAIGRQIQPYLEEGKCFRMVLKPWREKRSLSQNALSHMWYSEISEYLISRGKTFATPAWVKDALKHTYLGYETKDLVDVVTGDITTIQSLRHTSDLDTGEMYVFLCKVEAWAMNIGCHLTIPQSCEFQLLRDKQEA

In one data set the target is T1, λ Exo – Redβ complex. As to the kind of experiment: Fluorescence anisotropy binding of SSB-Ct peptide to λ Exo–Redβ complex. On the set-up: species or system Bacteriophage λ.
Another data set has as its target T2, Redβ. The experiment in a line: Fluorescence anisotropy binding of SSB-Ct peptide to Redβ. Set-up: species or system Bacteriophage λ. As to conditions: 20 nM FAM-WMDFDDDIPA, full-length Redβ, pH 7.5, 25°C.
The target in data set [1] is B3. As to the kind of experiment: crystal structure.
In another data set the test system is λ Exo. Particulars: cited from earlier work.
A further data set deals with ssDNA or dsDNA. Particulars: cited from earlier work.
In data set [2] the target is T3, Redβ, full-length, untagged (wild type). The experiment in a line: fluorescence polarisation.
For data set [3], the target named is T4, complex of λ Exo and full-length …. The experiment in a line: fluorescence polarisation.
Data set [4] deals with T5, 6His-tagged Escherichia coli …. The experiment in a line: fluorescence polarisation.
The conditions of data set [5]: cited from earlier work.
The conditions of data set [6]: cited from earlier work. The source holds these as a separate data set.
The data set “crystal structure” concerns the molecule itself. As to the kind of experiment: crystal structure.
A further data set concerns SSB. As to conditions: cited from earlier work.

At λ Exo – Redβ complex, `CC[C@H](C)[C@H](NC(=O)[C@H](CC(=O)O)NC(=O)[C@H](CC(=O)O)NC(=O)[C@H](CC(=O)O)NC(=O)[C@H](Cc1ccccc1)NC(=O)[C@H](CC(=O)O)NC(=O)[C@H](CCSC)NC(=O)[C@H](Cc1c[nH]c2ccccc12)NC(=O)c1ccc2c(c1)C(=O)OC21c2ccc(O)cc2Oc2cc(O)ccc21)C(=O)N1CCC[C@H]1C(=O)N[C@@H](Cc1ccccc1)C(=O)O` [SSB-Ct, FAM-WMDFDDDIPF] (5FAM-WMDFDDDIPF-OH) had a Kd of 12.8 ± 3.5 µM. On to “FAM-WMDFDDDIPA [SSB-Ct peptide with the F177A mutation]”, for which the “binding of F177A SSB-Ct peptide to Redβ” value on Redβ is “completely failed to interact; also recorded: fails to bind”. Regarding B1, the binding result in [1] is listed as “binds”. The “interaction with λ Exo” value in the data set with λ Exo (Ni-spin pull down) was “clear interaction”. The “interaction with ssDNA or dsDNA” value with ssDNA or dsDNA is listed as “no interaction with ssDNA or dsDNA”.

Turning to {FAM}-WMDFDDDIPF [SSB C-terminal peptide, fluorescein-labeled (FAM-WMDFDDDIPF)], the equilibrium dissociation constant (Kd) was 10.6 µM in data set [2]; 12.8 µM and 12 µM in data set [3]; 98 nM in [4].

As for B2, the “interaction with λ Exo” value in the data set on λ Exo (Ni-spin pull down) is recorded as “completely disrupts the interaction with λ Exo”. The ssDNA recombination result in data set [5] was “completely disrupts”. For the same molecule, the dsDNA recombination entry in [6] is “completely disrupts”. As for B3, the “stoichiometry N” value in “crystal structure” came out at 3. On to B4, for which, in the data set with λ Exo, the “interaction with λ Exo” value is reported as “weakened (but did not abolish) the interaction with λ Exo”. Besides, the “dsDNA relative to ssDNA recombination” value in data set [6] (individual CTD mutations) is “disrupted dsDNA and ssDNA equally”. Take B5: the “requirement of SSB C-tail for interaction with SSB” value in the data set on SSB is listed as “does require the C-tail for its interaction with SSB”.
